Reference: US20190225669A1 (ACCELERON PHARMA, published 2019)
Where two headings read alike, the source gives them in different places. Values belong to the binder of their own block, whether it stands above or below them.

Tests used:
activin A [1] = target: T1, activin A (UniProt P08476 311-426); assay: Biacore SPR
T1 sequence (looked up): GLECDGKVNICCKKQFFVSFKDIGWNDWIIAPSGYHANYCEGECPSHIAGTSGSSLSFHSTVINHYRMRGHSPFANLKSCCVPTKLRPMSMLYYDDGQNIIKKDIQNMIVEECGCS
Method: (§1) Ligands were injected and allowed to flow over the captured receptor protein.

activin B [2] = target: T2, activin B (UniProt P09529 293-407); assay: Biacore SPR
T2 sequence (looked up): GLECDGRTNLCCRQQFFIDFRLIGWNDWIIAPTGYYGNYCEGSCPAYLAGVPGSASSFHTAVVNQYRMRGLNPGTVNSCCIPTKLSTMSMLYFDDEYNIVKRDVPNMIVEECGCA
Method: as §1

BMP6 = target: T3, BMP6 (UniProt P22004 382-513, limits assumed); assay: Biacore SPR
T3 sequence (looked up): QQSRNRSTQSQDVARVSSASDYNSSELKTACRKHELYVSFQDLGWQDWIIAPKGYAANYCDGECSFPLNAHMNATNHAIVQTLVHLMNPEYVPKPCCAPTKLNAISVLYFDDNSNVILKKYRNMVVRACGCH
Method: as §1

BMP10 [3] = target: T4, BMP10 (UniProt O95393 317-424); assay: Biacore SPR
T4 sequence (looked up): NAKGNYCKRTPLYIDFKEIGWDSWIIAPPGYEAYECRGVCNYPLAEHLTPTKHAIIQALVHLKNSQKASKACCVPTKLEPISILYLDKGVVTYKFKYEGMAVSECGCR
Method: as §1

GDF3 = target: T5, GDF3 (UniProt Q9NR23 251-364); assay: Biacore SPR
T5 sequence (looked up): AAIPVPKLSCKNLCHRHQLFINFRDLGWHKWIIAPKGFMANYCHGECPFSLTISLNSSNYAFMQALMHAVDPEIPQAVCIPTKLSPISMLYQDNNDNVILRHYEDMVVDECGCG
Method: as §1

GDF8 = target: T6, GDF8 (UniProt O14793 267-375); assay: Biacore SPR
T6 construct: also called myostatin
T6 sequence (looked up): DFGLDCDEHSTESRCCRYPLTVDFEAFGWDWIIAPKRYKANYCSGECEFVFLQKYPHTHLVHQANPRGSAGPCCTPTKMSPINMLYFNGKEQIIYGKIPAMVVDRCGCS
Method: as §1

GDF11 = target: T7, GDF11 (UniProt O95390 299-407); assay: Biacore SPR
T7 construct: also called BMP11
T7 sequence (looked up): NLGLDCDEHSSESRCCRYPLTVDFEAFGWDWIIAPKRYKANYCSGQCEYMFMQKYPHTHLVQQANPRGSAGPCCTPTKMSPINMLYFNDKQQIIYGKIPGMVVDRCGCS
Method: as §1

BMP9 = target: T8, BMP9 (UniProt Q9UK05 320-429); assay: Biacore SPR; kinetics indeterminate (transient)
T8 construct: also called GDF2
T8 sequence (looked up): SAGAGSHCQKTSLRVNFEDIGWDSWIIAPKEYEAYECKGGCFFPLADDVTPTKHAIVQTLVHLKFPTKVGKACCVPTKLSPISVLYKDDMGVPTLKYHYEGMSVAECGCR
Method: as §1

activin A [4] = target: T1, activin A; assay: Biacore SPR; remark: listed apart in the source
Method: as §1

activin B [5] = target: T2, activin B; assay: Biacore SPR; remark: listed apart in the source
Method: as §1

activin AB = target: T9, activin AB (UniProt P08476 311-426; P09529 293-407); assay: Biacore SPR
T9 sequence (looked up) 1: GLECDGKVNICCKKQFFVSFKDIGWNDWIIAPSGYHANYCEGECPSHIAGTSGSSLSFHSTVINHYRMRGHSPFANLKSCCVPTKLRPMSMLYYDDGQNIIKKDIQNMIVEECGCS
T9 sequence (looked up) 2: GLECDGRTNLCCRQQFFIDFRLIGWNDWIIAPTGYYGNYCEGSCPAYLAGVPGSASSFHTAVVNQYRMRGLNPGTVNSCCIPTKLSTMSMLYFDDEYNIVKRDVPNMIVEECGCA
Method: as §1

BMP10 [6] = target: T4, BMP10; assay: Biacore SPR; remark: listed apart in the source
Method: as §1

BMP15 = target: T10, BMP15 (UniProt O95972 268-392); assay: Biacore SPR
T10 construct: also called GDF9b
T10 sequence (looked up): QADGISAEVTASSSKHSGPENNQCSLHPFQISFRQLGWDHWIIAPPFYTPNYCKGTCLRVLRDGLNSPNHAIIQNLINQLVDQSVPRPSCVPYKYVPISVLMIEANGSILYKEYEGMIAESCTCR
Method: as §1

Kd (activin A [1]): 0.012 nM
koff (activin A [1]): 0.00015 s⁻¹
kon (activin A [1]): 1.3e+07 M⁻¹ s⁻¹
Kd (activin B [2]): 0.006 nM
koff (activin B [2]): 4e-05 s⁻¹
kon (activin B [2]): 7.1e+06 M⁻¹ s⁻¹
Kd (BMP6): 2.7 nM
koff (BMP6): 0.0055 s⁻¹
kon (BMP6): 2e+06 M⁻¹ s⁻¹
Kd (BMP10 [3]): 0.074 nM
koff (BMP10 [3]): 0.0041 s⁻¹
kon (BMP10 [3]): 5.6e+07 M⁻¹ s⁻¹
Kd (GDF3): 4.9 nM
koff (GDF3): 0.017 s⁻¹
kon (GDF3): 3.4e+06 M⁻¹ s⁻¹
Kd (GDF8): 0.55 nM
koff (GDF8): 0.00021 s⁻¹
kon (GDF8): 390000 M⁻¹ s⁻¹
Kd (GDF11): 0.003 nM
koff (GDF11): 0.00011 s⁻¹
kon (GDF11): 3.8e+07 M⁻¹ s⁻¹
Kd (BMP9): 3.4 nM
B1: ActRIIB-Fc:ALK4-Fc heterodimer (Fc fusion)
chain 1: GRGEAETRECIYYNANWELERTNQSGLERCEGEQDKRLHCYASWRNSSGTIELVKKGCWLDDFNCYDRQECVATEENPQVYFCCCEGNFCNERFTHLPEAGGPEVTYEPPPTAPTGGGTHTCPPCPAPELLGGPSVFLFPPKPKDTLMISRTPEVTCVVVDVSHEDPEVKFNWYVDGVEVHNAKTKPREEQYNSTYRVVSVLTVLHQDWLNGKEYKCKVSNKALPAPIEKTISKAKGQPREPQVYTLPPSRKEMTKNQVSLTCLVKGFYPSDIAVEWESNGQPENNYKTTPPVLKSDGSFFLYSKLTVDKSRWQQGNVFSCSVMHEALHNHYTQKSLSLSPGK
chain 2: SGPRGVQALLCACTSCLQANYTCETDGACMVSIFNLDGMEHHVRTCIPKVELVPAGKPFYCLSSEDLRNTHCCYTDYCNRIDLRVPSGHLKEPEHPSMWGPVETGGGTHTCPPCPAPELLGGPSVFLFPPKPKDTLMISRTPEVTCVVVDVSHEDPEVKFNWYVDGVEVHNAKTKPREEQYNSTYRVVSVLTVLHQDWLNGKEYKCKVSNKALPAPIEKTISKAKGQPREPQVYTLPPSREEMTKNQVSLTCLVKGFYPSDIAVEWESNGQPENNYDTTPPVLDSDGSFFLYSDLTVDKSRWQQGNVFSCSVMHEALHNHYTQKSLSLSPG
notes: C-terminal Lys optional; also called ActRIIB-Fc:ALK4-Fc heterodimeric complex; ActRIIB-Fc:ALK4-Fc heteromeric complex

Kd (activin A [4]): 1.1 nM
koff (activin A [4]): 0.0022 s⁻¹
kon (activin A [4]): 2e+06 M⁻¹ s⁻¹
Kd (activin B [5]): 1.7 nM
koff (activin B [5]): 0.0026 s⁻¹
kon (activin B [5]): 1.6e+06 M⁻¹ s⁻¹
Kd (activin AB): 0.14 nM
koff (activin AB): 0.0005 s⁻¹
kon (activin AB): 3.6e+06 M⁻¹ s⁻¹
Kd (BMP10 [6]): 2.2 nM
koff (BMP10 [6]): 0.0018 s⁻¹
kon (BMP10 [6]): 800000 M⁻¹ s⁻¹
Kd (BMP15): 1.7 nM
koff (BMP15): 0.048 s⁻¹
kon (BMP15): 2.8e+07 M⁻¹ s⁻¹
Kd (BMP9): > 140 nM
B2: BMPRII-Fc:ALK4-Fc heterodimer (Fc fusion)
chain 1: SQNQERLCAFKDPYQQDLGIGESRISHENGTILCSKGSTCYGLWEKSKGDINLVKQGCWSHIGDPQECHYEECVVTTTPPSIQNGTYRFCCCSTDLCNVNFTENFPPPDTTPLSPPHSFNRDETGGGTHTCPPCPAPELLGGPSVFLFPPKPKDTLMISRTPEVTCVVVDVSHEDPEVKFNWYVDGVEVHNAKTKPREEQYNSTYRVVSVLTVLHQDWLNGKEYKCKVSNKALPAPIEKTISKAKGQPREPQVYTLPPSRKEMTKNQVSLTCLVKGFYPSDIAVEWESNGQPENNYKTTPPVLKSDGSFFLYSKLTVDKSRWQQGNVFSCSVMHEALHNHYTQKSLSLSPGK
chain 2: SGPRGVQALLCACTSCLQANYTCETDGACMVSIFNLDGMEHHVRTCIPKVELVPAGKPFYCLSSEDLRNTHCCYTDYCNRIDLRVPSGHLKEPEHPSMWGPVETGGGTHTCPPCPAPELLGGPSVFLFPPKPKDTLMISRTPEVTCVVVDVSHEDPEVKFNWYVDGVEVHNAKTKPREEQYNSTYRVVSVLTVLHQDWLNGKEYKCKVSNKALPAPIEKTISKAKGQPREPQVYTLPPSREEMTKNQVSLTCLVKGFYPSDIAVEWESNGQPENNYDTTPPVLDSDGSFFLYSDLTVDKSRWQQGNVFSCSVMHEALHNHYTQKSLSLSPG
notes: C-terminal Lys optional; also called BMPRII-Fc:ALK4-Fc heterodimeric complex
